# Measurements: patent US20070160982A1 (University of Texas, published 2007)
# B1: M186 mutant NS1A protein (other)
# chain: MDSNTVSSFQVDCFLWHVRKQVVDQELGDAPFLDRLRRDQKSLRGRGSTLGLNIEAATHVGKQIVEKILKEESDEALKMTMASTPASRYITDMTIEELSRDWFMLMPKQKVEGPLCIRIDQAIMDKNIMLKANFSVIFDRLETLILLRAFTEEGAIVGEISPLPSFPGHTIEDVKNAIGVLIGRFLRYDNTVRVSKTLQRFAWGSSNENGRPPLTPKQKRKMARTARSKVRRDKMAD
# modifications: 35S-methionine label (in vitro translated)
# Biological target: GST-F2F3 (GST fusion of CPSF30 zinc fingers F2F3, amino acids 61-121) (UniProt P08515 1-218 = GST)
binder,measurement,value
B1,binding result,no binding
